{"source": "patent US20160169910A1", "key": {"protein G-agarose beads": {"target": "protein G-agarose beads (UniProt P06654)", "assay": "mock depletion of FSGS plasma with protein G-agarose beads only, R&D ELISA"}, "[1]": {"target": "suPAR in human plasma from FSGS patients (human) (UniProt Q03405)", "sequence (Q03405 23-305 limits assumed)": "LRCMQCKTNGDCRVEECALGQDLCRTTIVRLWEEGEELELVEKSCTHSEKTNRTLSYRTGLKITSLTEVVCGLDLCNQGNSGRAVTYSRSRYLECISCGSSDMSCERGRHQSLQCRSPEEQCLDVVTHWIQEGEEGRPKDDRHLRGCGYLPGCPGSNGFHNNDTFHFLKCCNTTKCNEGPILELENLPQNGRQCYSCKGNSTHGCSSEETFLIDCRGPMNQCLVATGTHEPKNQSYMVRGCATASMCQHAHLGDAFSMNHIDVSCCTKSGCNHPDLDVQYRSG", "assay": "immunodepletion of FSGS plasma, remaining suPAR measured by R&D ELISA"}}}
{"substance": "suPAR in human plasma from FSGS patients (from UniProt Q03405 23-305) (receptor)", "values": [{"measurement": "percent lowering of suPAR level in plasma", "setting": "protein G-agarose beads", "value": "20 to 50", "unit": "%"}]}
{"substance": "mouse monoclonal anti-suPAR antibody ATN615", "values": [{"measurement": "percent of suPAR removed from human plasma", "setting": "[1]", "value": "> 99", "unit": "%"}]}
